Experimental data published in the supplement of paper PMC10724198.
± gives the standard deviation of the averaged measurements.

Each sequence was assayed on Saccharomyces cerevisiae (assay: protein stability index of tFT-peptide fusion (C-terminal peptide) (PSI (0-1 scale)); higher = more stable (slower turnover)). Settings: genetic background: wild type; temperature: 30 C.
Experimental: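 Multiplexed protein stability (MPS) profiling in S. cerevisiae. Random 12-aa peptides (tFT-X12 library) are fused to the C-terminus of a sfGFP-mCherry tandem fluorescent timer, after mCherry and a GGGS linker. Cells are FACS-sorted into 8 mCherry/sfGFP bins and deep-sequenced. The protein stability index (PSI) is the read-weighted bin average, scaled from 0 (unstable) to 1 (stable). Only peptides with >10 reads are reported; cells were grown at 30 °C in SC-His with glucose.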
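Further: PSI is a weighted mean of sequencing reads over stability bins, variants kept only with over 10 reads, mCherry proximal and sfGFP distal, peptide attached via GGGS linker.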

| Sequence | protein stability index |
| --- | --- |
| AAAWWGPRNRGL | 0.6749 ± 0.0056 |
| AAGLNSWLRERW | 0.805 ± 0.032 |
| AAIQNRPIQSNP | 0.672 ± 0.027 |
| AALLQAGMPRTR | 0.692 ± 0.013 |
| AAPPHLTSHPPL | 0.811 ± 0.19 |
| AARRVARTTSFC | 0.6728 ± 0.0019 |
| AARSCRCSSLIG | 0.774 ± 0.0035 |
| AAVRCVAEGGAP | 0.637 ± 0.036 |
| ACDVPSERAVSG | 0.628 ± 0.024 |
| ACFFNCFISLPF | 0.584 ± 0.048 |
| ACGDRGGLCSEG | 0.616 ± 0.066 |
| ADCLSCRVLIVM | 0.484 ± 0.075 |
| ADGLSRDKALIV | 0.598 ± 0.0074 |
| ADLAFAGGPYYG | 0.69 ± 0.067 |
| ADMTRSRYMGRS | 0.692 ± 0.033 |
| ADQAPVLTVWLP | 0.669 ± 0.023 |
| AELALGIESYLP | 0.683 ± 0.083 |
| AEMGQDGADAGQ | 0.676 ± 0.01 |
| AEPSERSRNSPP | 0.68 ± 0.019 |
| AEVRRQEGTVGV | 0.707 ± 0.036 |
| AEYSTAYRLGIC | 0.644 ± 0.1 |
| AFCLLSSLASGF | 0.759 ± 0.067 |
| AFHTLSGFRRVP | 0.673 ± 0.019 |
| AFLMPFPSRLCV | 0.5806 ± 0.0052 |
| AFPGCRPFRPLH | 0.709 ± 0.056 |
| AFPHDYCRFFLP | 0.612 ± 0.048 |

| Sequence | protein stability index |
| --- | --- |
| AFPHRLTRGYDQ | 0.666 ± 0.038 |
| AFPSISNEVVSV | 0.707 ± 0.017 |
| AFRCGGVPGDFA | 0.664 ± 0.022 |
| AFSASLAGSGRS | 0.736 ± 0.046 |
| AFSGMMSVFREW | 0.695 ± 0.049 |
| AGAFVGAPVGGE | 0.713 ± 0.026 |
| AGALFRLPSVFD | 0.727 ± 0.076 |
| AGASCGGRPDTA | 0.607 ± 0.02 |
| AGCGGIWGLWVL | 0.723 ± 0.05 |
| AGCGGRCEAGDR | 0.67 ± 0.011 |
| AGFGVGALSRSG | 0.673 ± 0.041 |
| AGGAAIVERAMK | 0.6857 ± 0.003 |
| AGGDDGAPGTQS | 0.644 ± 0.015 |
| AGGGPDGFIRPM | 0.701 ± 0.014 |
| AGGKGVGRGWGL | 0.698 ± 0.051 |
| AGGLGSGGSRER | 0.6612 ± 0.0024 |
| AGGSVFSVLVDE | 0.665 ± 0.0081 |
| AGGWLRGWLGVG | 0.673 ± 0.047 |
| AGGWRGAEGCGG | 0.782 ± 0.083 |
| AGQNVWGAGTNE | 0.712 ± 0.0079 |
| AGRGGRAGGGWR | 0.668 ± 0.015 |
| AGRSCGRHEPPK | 0.579 ± 0.098 |
| AGRVCTRGVNEI | 0.786 ± 0.1 |
| AGSAAGGAWSGG | 0.695 ± 0.019 |
| AGSLFEVECNGS | 0.746 ± 0.038 |
| AGSSIPLPASRA | 0.705 ± 0.026 |

| Sequence | protein stability index |
| --- | --- |
| AGSVIPCPASRP | 0.695 ± 0.029 |
| AHADISPIHNLH | 0.627 ± 0.0066 |
| AHGASLCVPPSP | 0.512 ± 0.013 |
| AHKSFRMVDGNR | 0.678 ± 0.066 |
| AHLLFGFGAPVS | 0.714 ± 0.15 |
| AHPLSVSSFLSF | 0.671 ± 0.0073 |
| AHPPPPQLPHPH | 0.7241 ± 0.0023 |
| AHWFMPVSCLLV | 0.838 ± 0.2 |
| AIDGVREDTSVE | 0.704 ± 0.18 |
| AIEKKVNQTPFK | 0.659 ± 0.034 |
| AIERCCTSRRRR | 0.701 ± 0.041 |
| AIGSVWACVCCS | 0.504 ± 0.095 |
| AIKTVINYRDMM | 0.608 ± 0.0024 |
| AIRTPPTRTPPA | 0.71 ± 0.049 |
| AISSPVLSYATP | 0.657 ± 0.0035 |
| AKACHGGSTLPG | 0.609 ± 0.045 |
| AKKKKKTKRRKK | 0.692 ± 0.07 |
| AKLQQEIVWALD | 0.779 ± 0.048 |
| AKVKIENKHRRK | 0.716 ± 0.015 |
| AKWAWPAIVGGC | 0.722 ± 0.053 |
| ALASPGLLVFTR | 0.673 ± 0.026 |
| ALCGWYMGLFHL | 0.646 ± 0.0042 |
| ALFEDWRIGVFS | 0.71 ± 0.036 |
| ALFPPPSLRPLP | 0.724 ± 0.054 |
| ALFTVGNRPSSL | 0.701 ± 0.021 |
| ALGVHGKFEWIK | 0.668 ± 0.066 |

| Sequence | protein stability index |
| --- | --- |
| ALHPPSPPPPAP | 0.7313 ± 0.0027 |
| ALIGMFATVALI | 0.689 ± 0.099 |
| ALMHVTLAVGLL | 0.579 ± 0.0027 |
| ALPPPPPHPSPS | 0.717 ± 0.019 |
| ALPYPPRFPHCS | 0.645 ± 0.019 |
| ALRCRPVYHIDG | 0.658 ± 0.025 |
| ALRRWWCRGGRI | 0.813 ± 0.024 |
| ALRSGGAARVRL | 0.7776 ± 0.0071 |
| ALSHGPAPRTRS | 0.649 ± 0.048 |
| ALSLPPRLRTFY | 0.663 ± 0.05 |
| ALSRSCPSGAFL | 0.727 ± 0.01 |
| AMLLRCRQGDLI | 0.675 ± 0.032 |
| AMVATAYINPHE | 0.712 ± 0.037 |
| ANELQEIYLGET | 0.6881 ± 0.006 |
| ANGTLSGSPAPS | 0.641 ± 0.021 |
| ANKNDHNNQRQA | 0.789 ± 0.09 |
| ANVRTCCTSVPV | 0.652 ± 0.037 |
| APAPELRRSPTP | 0.707 ± 0.01 |
| APAPPPGVPPSR | 0.702 ± 0.002 |
| APASPSFPLSAP | 0.673 ± 0.025 |
| APCLLNTLRPSP | 0.686 ± 0.033 |
| APEAHYRGCPPH | 0.681 ± 0.018 |
| APFPPHPPPPPS | 0.707 ± 0.043 |
| APFSALFPANSV | 0.719 ± 0.15 |
| APGPCSAPSCGA | 0.67 ± 0.013 |
| APGPPPLPHPPT | 0.717 ± 0.022 |

| Sequence | protein stability index |
| --- | --- |
| APILFRICVRRL | 0.541 ± 0.046 |
| APIRPPVPPASP | 0.716 ± 0.035 |
| APLFLPPPSLFF | 0.6934 ± 0.0052 |
| APLLTRRLPTAH | 0.785 ± 0.025 |
| APLTYFKPPTPT | 0.666 ± 0.11 |
| APPLQLSSPPPS | 0.746 ± 0.051 |
| APPPAAPALSPR | 0.718 ± 0.096 |
| APPPAYCPPPPP | 0.713 ± 0.022 |
| APPPPPALPEYQ | 0.685 ± 0.047 |
| APPPPPDHPFPP | 0.691 ± 0.08 |
| APPPPPPPCAPS | 0.657 ± 0.043 |
| APPPPPSPRRPL | 0.708 ± 0.013 |
| APPPPPSRLFPP | 0.672 ± 0.028 |
| APPPPRPLLPSL | 0.723 ± 0.047 |
| APPPRLAPTLSS | 0.775 ± 0.014 |
| APPPSPPPPPFP | 0.67 ± 0.064 |
| APPPVFLPPPPP | 0.778 ± 0.039 |
| APPSPPPPTSHP | 0.777 ± 0.051 |
| APPSPRPSRPSP | 0.64 ± 0.029 |
| APRLFSPPEPPT | 0.702 ± 0.038 |
| APRLIALPPPTA | 0.711 ± 0.11 |
| APRPLPPPPSPC | 0.726 ± 0.027 |
| APRTRPSPTLGT | 0.724 ± 0.029 |
| APSCRVPPLPPP | 0.708 ± 0.046 |
| APSELSSRPFLL | 0.707 ± 0.026 |
| APSFSSPPVPLF | 0.698 ± 0.0085 |

| Sequence | protein stability index |
| --- | --- |
| APSRTPRQPPSH | 0.716 ± 0.067 |
| APTPPPRISAWL | 0.687 ± 0.019 |
| APTVPVPPSPDA | 0.705 ± 0.077 |
| APVRSSIALKSD | 0.703 ± 0.035 |
| APVWSINKTRVM | 0.671 ± 0.045 |
| AQSRTCPMPLPA | 0.719 ± 0.025 |
| AQTHGGSSLPRP | 0.688 ± 0.028 |
| ARAAHLASRGLP | 0.689 ± 0.037 |
| ARCLSFPSSSSA | 0.654 ± 0.022 |
| ARESGFGGVLEE | 0.674 ± 0.028 |
| ARFSPTLQLTPT | 0.844 ± 0.13 |
| ARGCRRWRVLRR | 0.77 ± 0.25 |
| ARGGIGTCSWGW | 0.743 ± 0.074 |
| ARGSTGLKLRWG | 0.706 ± 0.0096 |
| ARIALGLSALVL | 0.641 ± 0.05 |
| ARIRDSPVIKTV | 0.672 ± 0.019 |
| ARLAYESSPLPR | 0.7185 ± 0.0056 |
| ARNDAGKRERVT | 0.696 ± 0.016 |
| ARNKKKDLREIK | 0.761 ± 0.054 |
| ARPCPRPHVPST | 0.706 ± 0.043 |
| ARPFLWDFCLGR | 0.681 ± 0.028 |
| ARPGAWAPTEVD | 0.737 ± 0.0099 |
| ARPLHSIGPAII | 0.658 ± 0.0089 |
| ARPPTPLRKGAP | 0.673 ± 0.017 |
| ARPSRPPPPSPP | 0.662 ± 0.018 |
